According to US20250290123:
Where two headings read alike, the source gives them in different places.

Legend:
[1] = test system: LigAT_C-RNAseH-Ecoli (ATCV-1 ligase fused at C-terminus to inactive E. coli RNase H) (Acanthocystis turfacea chlorella virus 1 / Escherichia coli); conditions: CE ligation assay
[2] = test system: LigAT-HU (control ligase); conditions: CE ligation assay, control buffer, 2 h 37 C
[3] = test system: LigAT-HU (control ligase); conditions: 5'-phosphate; control buffer 37 C; less than 5% at 55 C
[4] = test system: LigAT_C-RNAseH-Ecoli (ATCV-1 ligase fused at C-terminus to inactive E. coli RNase H) (Acanthocystis turfacea chlorella virus 1 / Escherichia coli); conditions: 5'-phosphate; Buffer 1B, 37-55 C, 2 h, 1 uM ligase
[5] = test system: LigAT_C-RNAseH-Sto (Acanthocystis turfacea chlorella virus 1 / Sulfolobus tokodaii); conditions: 5'-phosphate; Buffer 2B, 37-55 C, 2 h

CA junction template and substrates
activity (% ligation yield) [1]: 39

CG junction template and substrates
activity (% ligation yield) [2]: < 10
activity (% ligation yield) [1]: 17

GT junction template and substrates
activity (% ligation yield) [1]: 47

TA junction template and substrates
activity (% ligation yield) [1]: 45

TG junction template and substrates
activity (% ligation yield) [1]: 40

AA junction RNA template with DNA substrates A and pA
activity (% ligation yield) ([1]; 5'-phosphate on SEQ 43, matched junction): 37

AC junction template and substrates
activity (% ligation yield) [1]: 36

TT junction template and substrates
activity (% ligation yield) [1]: 50

TC junction template and substrates
activity (% ligation yield) [1]: 49

CT junction template and substrates
activity (% ligation yield) [1]: 43

DNA padlock probes annealed to RNA template
activity (% ligated product) [3]: 25
activity (% ligated product) [4]: > 75
activity (% ligated product) [5]: > 75

GA junction template and substrates
activity (% ligation yield) [1]: 48

AT junction template and substrates
activity (% ligation yield) [1]: 37

GG junction template and substrates
activity (% ligation yield) [2]: < 10
activity (% ligation yield) [1]: 27

AG junction template and substrates
activity (% ligation yield) [2]: < 10
activity (% ligation yield) [1]: 23

GC junction template and substrates
activity (% ligation yield) [2]: < 10
activity (% ligation yield) [1]: 35

CC junction template and substrates
activity (% ligation yield) [2]: < 10
activity (% ligation yield) [1]: 33
